From patent US20230295343A1 (NINGBO COMGEN BIOTECH, published 2023)

T1: human FXII (human, UniProt P00748 20-615)
T1 construct: Bought protein; also called factor XII; natural human FXII
T1 sequence (looked up): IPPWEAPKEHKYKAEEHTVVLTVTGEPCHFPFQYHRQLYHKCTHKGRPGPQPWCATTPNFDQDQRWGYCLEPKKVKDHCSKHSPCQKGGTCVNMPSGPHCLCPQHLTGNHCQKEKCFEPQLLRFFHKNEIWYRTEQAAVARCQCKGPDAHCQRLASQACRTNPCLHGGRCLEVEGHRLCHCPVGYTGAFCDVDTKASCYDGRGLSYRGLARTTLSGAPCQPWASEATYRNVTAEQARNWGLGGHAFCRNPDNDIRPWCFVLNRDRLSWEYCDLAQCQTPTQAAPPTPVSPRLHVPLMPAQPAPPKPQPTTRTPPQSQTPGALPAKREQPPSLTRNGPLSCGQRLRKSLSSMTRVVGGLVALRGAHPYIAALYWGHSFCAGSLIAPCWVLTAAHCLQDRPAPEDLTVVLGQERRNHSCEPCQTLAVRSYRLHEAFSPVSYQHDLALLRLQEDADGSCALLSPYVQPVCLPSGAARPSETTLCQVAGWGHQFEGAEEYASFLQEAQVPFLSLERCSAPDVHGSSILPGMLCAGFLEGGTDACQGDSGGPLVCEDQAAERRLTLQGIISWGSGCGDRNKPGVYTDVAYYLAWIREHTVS

T2: biotinylated FXII protein (UniProt P00748 20-615, biotinylated (sites not given))
T2 sequence (looked up): T1 sequence (looked up)

B1: nanobody N4-38 (VHH)
VHH: QVQLVESGGGLVQAGGSLRLSCAASGRTGNAYRMGWFRQAPGKEREFVAAISWNGDSTNYADSVKGRFTISRDNAKNTVYLQMNSLKPEDTAVYYCAVVKGIGVPPNMYDYWGQGTQVTVSS
notes: Alpaca nanobody expressed in E. coli from PET26b; also called N38; N4-38 antibody
B2: nanobody N4-44 (VHH)
VHH: QVQLVESGGGLVQAGGSLRLSCAASGSDFSINAMGWYRQAPGKERELVATISSGGSTYYADSVKGRFTISRDNAKNTLYLHMNTLKPEDTAMYYCAILKGATPGYWGQGTQVTVSS
notes: not shown: 6xHis tag from vector PET26b
B3: nanobody A5-8 (VHH)
VHH: QVQLVESGGGLAQVGGSLRLSCAASGSTFSFKSMGWYREAPGNQRELVAAISSKGIMTNSDSVKGRFTISRDNAKNTVDLHLNNLKPEDTAVYYCNVVEVGVGGLVNVYWGQGTQVTVSS
notes: as for B2

Columns and labels:
human FXII = molecular target: T1, human FXII; experiment: ELISA, plate coated with human FXII at 1 ug/mL, nanobody dilutions, anti-6xHis-HRP
Procedure: The titer detection method in Example 1 was as follows: An ELISA plate was coated with human FXII at a protein concentration of 1 μg/mL overnight at 4° C.; then the ELISA plate was washed with PBST buffer and blocked with 5% skimmed milk powder at room temperature for 2 h; the ELISA plate was washed with PBST buffer (which was prepared with 1 L of PBS and 500 μL of Tween 20), then nanobodies at different dilutions were added, and the ELISA plate was incubated for 2 h at room temperature; the ELISA plate was washed with PBST buffer, then an […] (Abcam) was added, and the ELISA plate was incubated for 1 h at room temperature in the dark; the ELISA plate was washed with PBST buffer, a tetramethylbenzidine (TMB) (R&D Systems) substrate solution was added, and a chromogenic reaction was conducted for 5 min to 10 min; and a stop solution (sulfuric acid with a concentration of 2 M) was added, and an OD value of each well was determined at 450 nm by a microplate reader.

[1] = molecular target: T2, biotinylated FXII protein; experiment: BLI (Fortebio Octet), biotinylated FXII loaded on the biosensor, N4-38 at 50, 20 and 10 ug/mL, 37 C
Procedure: (1) A Fortebio Octet special solution M (a PBST solution including BSA with a mass fraction of 0.5%) was prepared, filtered through a 0.22 μm filter membrane, and stored at 4° C. for later use; (2) a biotinylated FXII protein was diluted to 10 μg/mL, a nanobody N4-38 was diluted to 50 μg/mL, 20 μg/mL, and 10 μg/mL, and resulting samples each were added; (3) a biosensor was placed in a corresponding clean well of a spare box, and […] of the Fortebio Octet special solution M was added to each well corresponding to the biosensor; (4) a program was set as follows: first stage Baseline: 60 s, second stage Loading: 200 s, third stage Baseline 2: 100 s, fourth stage Association: 300 s, fourth stage Dissociation: 300 s, and reaction temperature during the whole process: 37° C.; and (5) after a reaction was completed, data analysis was conducted by software.

Binder | titer (human FXII) | Kd [1] [nM]
B1 | 220 | 3.07
B2 | 220 | 
B3 | 220 | 
